Molecular target: rhBMP-2 (R&D Systems, Item number 355-BM/CF) (human) (UniProt P12643)
Assay: retention test: peptide-free EDC/NHS crosslinked collagen disc loaded with 40 micrograms rhBMP-2, spun, unbound rhBMP-2 in supernatant by ELISA; control for the affinity biomatrix

Chain of rhBMP-2 (R&D Systems, Item number 355-BM/CF) (human) (P12643 283-396 limits assumed): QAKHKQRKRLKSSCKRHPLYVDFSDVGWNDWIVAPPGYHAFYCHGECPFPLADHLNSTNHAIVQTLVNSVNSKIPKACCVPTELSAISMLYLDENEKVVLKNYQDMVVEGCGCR

% rhBMP-2 incorporation: 40 % by weight
Substance: affinity peptide-free EDC/NHS crosslinked collagen disc (6 mm diameter)

— US20110230406A1
